According to US20220267427A1 (SYSMEX, published 2022):
Where no end group is shown, it is not given here. The star is where a group is joined. Biotin = O=C1N[C@H]2[C@H](CS[C@H]2CCCCC(=O)*)N1

T1: Peptide 22 (human)
T1 peptide: Biotin-RAEGQRQAQEYEALLNIK

T2: Peptide 19 (human)
T2 peptide: Biotin-MEQLNGILLHLESELAQT

T3: fCK18 in apoptosis-induced HepG2 cell culture supernatant (human, UniProt P05783 239-397)
T3 construct: Natural CK18 fragment from the culture supernatant of apoptosis-induced HepG2 cells (band around 18 KDa); also called fCK18 in apoptosis-inducing cells
T3 sequence: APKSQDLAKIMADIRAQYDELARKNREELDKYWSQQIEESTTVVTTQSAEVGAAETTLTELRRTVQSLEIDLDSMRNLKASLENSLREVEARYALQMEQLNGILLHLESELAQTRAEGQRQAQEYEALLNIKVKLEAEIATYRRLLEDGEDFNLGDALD

T4: Peptide 2 (human)
T4 construct: Synthetic peptide; lacks the C-terminal aspartic acid of Peptide 1
T4 peptide: {BSA}-RRLLEDGEDFNLGDAL


What was measured:
[1] = biological target: T1, Peptide 22; assay: solid phase ELISA; biotinylated peptide on plate, antibody 2 ug/ml
[2] = biological target: T2, Peptide 19; assay: as above
[3] = biological target: T3, fCK18 in apoptosis-induced HepG2 cell …; assay: HISCL sandwich immunoassay; K18-624 magnetic microbeads capture, K18-328Fab-ALP detector; fCK18 60.73 ng/mL
[4] = biological target: T3, fCK18 in apoptosis-induced HepG2 cell …; assay: plate ELISA with K18-624 magnetic microbeads, K18-328Fab-ALP detector; fCK18 20.27 ng/mL
Description: (§1) Measurement samples of 3-fold dilution series (3-fold to 6561-fold dilution) were prepared from the apoptosis-induced HepG2 cell culture supernatant with a diluent (TBS, pH 7.5, 2% BSA), and fCK18 was measured. […] Based on the prepared calibration curve, fCK18 in the measurement sample was measured.
(§2) This solution was added to an ELISA plate at 25 μL/well, then each measurement sample was added at 25 μL/well, and the plate was incubated (1500 rpm, RT, 20 min). […] (3) After washing the plate, the HISCL (registered trademark) R4 reagent was added thereto at 50 μL/well, and then the mixture was stirred (1500 rpm, RT, 1 min). Thereafter, the HISCL (registered trademark) R5 reagent was added at 100 μL/well, and then the mixture was stirred (1000 rpm, RT, 10 sec). (4) Luminescence intensity was measured with a plate reader.

[5] = biological target: T3, fCK18 in apoptosis-induced HepG2 cell …; assay: plate ELISA with K18-624 magnetic microbeads, K18-328Fab-ALP detector; fCK18 0.28 ng/mL
Description: as §1, §2

[6] = biological target: T3, fCK18 in apoptosis-induced HepG2 cell …; assay: plate ELISA with K18-624 magnetic microbeads, K18-328Fab-ALP detector; fCK18 6.79 ng/mL
Description: as §1, §2

[7] = biological target: T4, Peptide 2; assay: solid phase ELISA, BSA-conjugated peptide on plate
Description: (1) BSA was added to the N-terminus of Peptide 1 and Peptide 2. (2) Each peptide was added to an ELISA plate at 5 μg/mL and 100 μL/well, and the plate was allowed to stand at 4° C. overnight to immobilize the peptide. Thereafter, the plate was washed three times with PBST, and Buffer I′ (10 mM NaH₂PO₄.2H₂O, 149.7 mM NaCl, 2.5 mM EDTA 2Na, 0.10% BSA, pH 7.0) was added thereto at 200 μL/well to prepare a plate stored at 4° C. overnight. […] (5) The plate was washed three times with PBST, and 15000-fold diluted Peroxidase-conjugated Affinipure F(ab)′2 Fragment Goat Anti-Mouse IgG (H+L) (Jackson) was added thereto at 100 μL/well, followed by shaking at room temperature for 1 hour. (6) The plate was washed three times with PBST, TMB Mix (1-step Ultra TMB-ELISA (Thermo Scientific):3% H₂O₂: Phosphate-Citrate buffer (Sigma)=15:0.15:14.85) was added thereto at 100 μL/well, and the mixture was reacted at room temperature for 10 minutes. Thereafter, 1 M H₂SO₄ was added thereto at 100 μL/well to stop the reaction. (7) Absorbance of the reaction solution at 450 nm was measured with a plate reader.

[8] = biological target: T3, fCK18 in apoptosis-induced HepG2 cell …; assay: HISCL sandwich immunoassay; K18-624 magnetic microbeads capture, K18-328Fab-ALP detector; fCK18 0.28 ng/mL
[9] = biological target: T3, fCK18 in apoptosis-induced HepG2 cell …; assay: HISCL sandwich immunoassay; K18-624 magnetic microbeads capture, K18-328Fab-ALP detector; fCK18 2.23 ng/mL
[10] = biological target: T3, fCK18 in apoptosis-induced HepG2 cell …; assay: HISCL sandwich immunoassay; K18-624 magnetic microbeads capture, K18-328Fab-ALP detector
[11] = biological target: T3, fCK18 in apoptosis-induced HepG2 cell …; assay: plate ELISA with K18-624 magnetic microbeads, K18-328Fab-ALP detector; fCK18 60.73 ng/mL
Description: as §1, §2

[12] = biological target: T3, fCK18 in apoptosis-induced HepG2 cell …; assay: plate ELISA with K18-624 magnetic microbeads, K18-328Fab-ALP detector; fCK18 0.74 ng/mL
Description: as §1, §2

[13] = biological target: T3, fCK18 in apoptosis-induced HepG2 cell …; assay: HISCL sandwich immunoassay; K18-624 magnetic microbeads capture, K18-328Fab-ALP detector; fCK18 182.28 ng/mL
[14] = biological target: T3, fCK18 in apoptosis-induced HepG2 cell …; assay: HISCL sandwich immunoassay; K18-624 magnetic microbeads capture, K18-328Fab-ALP detector; fCK18 6.79 ng/mL
Description: as §1, §2

[15] = biological target: T3, fCK18 in apoptosis-induced HepG2 cell …; assay: plate ELISA with K18-624 magnetic microbeads, K18-328Fab-ALP detector; fCK18 0.09 ng/mL
Description: as §1, §2

Row | Abs450 [1] | Abs450 [2] | S/N ratio [3] | S/N ratio [4] | S/N ratio [5] | S/N ratio [6] | binding result [7] | S/N ratio [8] | S/N ratio [9] | fCK18 concentration detectable (S/N ratio of 2 or more) [10] | fold detection sensitivity compared with Comparative Example 1 (M30 antibody) [10] | S/N ratio [11] | S/N ratio [12] | S/N ratio [13] | S/N ratio [14] | S/N ratio [15] | Binder
1 | 0 | 0.01 |  |  |  |  |  |  |  |  |  |  |  |  |  |  | K18-328 antibody (antibody, V domains shown, Mouse monoclonal antibody from a hybridoma (immunogen full length rCK18)) VH: QVHLQQSAAELARPGASVKMSCKASGYTFTNYTIHWIKQRPGQGLEWIGYINPSSGYTDYNQNFKDKTTLTADKSSTTVYMQLSSLTSEDSAVYYCARQIPFAYWGQGTLVTVSA VL: not shown
2 |  |  | 683 | 525 | 5.9 | 158 | no binding (tested: 5 to 10 ng/mL) | 3.8 | 25.9 | ≥ 0.28 ng/mL | ~8 fold | 1850 | 16.1 | 2070 | 75.7 | 2.7 | K18-624 antibody (antibody, V domains shown, Mouse monoclonal antibody from a hybridoma (Balb/C mouse immunised with Peptide 1-KLH)) VH: DVQLVESGGGLVQPGGSRKLSCAASGFTFSSFGMHWVRQAPEKGLEWVAYISSGSTTIYYADTVKGRFTISRDNPKNTLFLQMTSLRSEDTAMYYCARRGMITTGAWFAYWGQGTLVTVSA VL: DILLTQSPAILSVSPGERVSFSCRASQRIGTSIHWYQQRTNGSPRLLIKYASESISGIPSRFSGSGSGTDFTLSINSVESEDIADYYCQQSYIWPFTFGSGTKLEIK
